Assay results: the supplement of paper PMC10567573

B1: ZNF649 (parent)
chain: MTKAQESLTLEDVAVDFTWEEWQF

Variants of: B1
Experiment: protein stability index of a GFP-peptide fusion (GPS, HEK-293T) (PSI 1-6); higher = more stable
Conditions: c terminus: a fixed tail appended
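Note: lentivirally expressed fusions sorted by FACS into six bins by GFP to DsRed ratio, PSI derived from sequencing read proportions per bin multiplied by bin number.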

Question: With MTKAQESLTLEDVAVDFLWEEWQF [T18L] as the variant, how does the protein stability index read?
Answer: 2.26

Question: For MYKAQESLTLEDVAVDFTWEEWQF [T2Y], which protein stability index is on record?
Answer: 2.33

Question: With MTKAQESHTLEDVAVDFTWEEWQF [L8H] as the variant, how does the protein stability index read?
Answer: 4.05

Question: With MTKAQESLTLEDVAVDCTWEEWQF [F17C] as the variant, how does the protein stability index read?
Answer: 4.1

Question: With MTKAQESLTLEDVAVDFTWEEWEF [Q23E] as the variant, how does the protein stability index read?
Answer: 3.46

Question: Which protein stability index does the source give for MFKAQESLTLEDVAVDFTWEEWQF [T2F] here?
Answer: 2.66

Question: Which protein stability index does the source give for MTKAEESLTLEDVAVDFTWEEWQF [Q5E] here?
Answer: 3.35

Question: For WTKAQESLTLEDVAVDFTWEEWQF [M1W], which protein stability index is on record?
Answer: 2.07

Question: With MWKAQESLTLEDVAVDFTWEEWQF [T2W] as the variant, how does the protein stability index read?
Answer: 2.36

Question: For MTFAQESLTLEDVAVDFTWEEWQF [K3F], which protein stability index is on record?
Answer: 2.17

Question: With MTKCQESLTLEDVAVDFTWEEWQF [A4C] as the variant, how does the protein stability index read?
Answer: 2.4

Question: With MTKALESLTLEDVAVDFTWEEWQF [Q5L] as the variant, how does the protein stability index read?
Answer: 2.97

Question: For MTKAYESLTLEDVAVDFTWEEWQF [Q5Y], which protein stability index is on record?
Answer: 2.32

Question: For MTKAQESLTLEDVAVDFTWEEWFF [Q23F], which protein stability index is on record?
Answer: 2.66

Question: With ETKAQESLTLEDVAVDFTWEEWQF [M1E] as the variant, how does the protein stability index read?
Answer: 4.48

Question: With MTKAQESLTLEDVAVPFTWEEWQF [D16P] as the variant, how does the protein stability index read?
Answer: 4.02

Question: Which protein stability index does the source give for MTKAQESLTLEDVAVDMTWEEWQF [F17M] here?
Answer: 4.17

Question: Which protein stability index does the source give for MTKAQESLTVEDVAVDFTWEEWQF [L10V] here?
Answer: 3.01

Question: With MTKAQESLTLEDVAVDFTWEEWQA [F24A] as the variant, how does the protein stability index read?
Answer: 4.61

Question: For MTKSQESLTLEDVAVDFTWEEWQF [A4S], which protein stability index is on record?
Answer: 3.45

Question: For MTKAQCSLTLEDVAVDFTWEEWQF [E6C], which protein stability index is on record?
Answer: 2.52

Question: For MTKAQESLTLEDVAQDFTWEEWQF [V15Q], which protein stability index is on record?
Answer: 4.44

Question: Which protein stability index does the source give for MTNAQESLTLEDVAVDFTWEEWQF [K3N] here?
Answer: 3.65

Question: For MLKAQESLTLEDVAVDFTWEEWQF [T2L], which protein stability index is on record?
Answer: 3.97

Question: For MTKAQENLTLEDVAVDFTWEEWQF [S7N], which protein stability index is on record?
Answer: 3.39

Question: For MTKAQESLNLEDVAVDFTWEEWQF [T9N], which protein stability index is on record?
Answer: 4.28

Question: For MTKAQESLTLEDVAVDFTWEERQF [W22R], which protein stability index is on record?
Answer: 3.69

Question: With MTKAQESLTLEDVAVDFTWEEWGF [Q23G] as the variant, how does the protein stability index read?
Answer: 2.87

Question: Which protein stability index does the source give for MTKAQESLTLEDVAVDFTWEEWQN [F24N] here?
Answer: 4.35

Question: Which protein stability index does the source give for MTKAQESLTLEDVAVDFTWVEWQF [E20V] here?
Answer: 3.37

Question: With MTKAQESLTLWDVAVDFTWEEWQF [E11W] as the variant, how does the protein stability index read?
Answer: 2.13

Question: Which protein stability index does the source give for MTKAQESNTLEDVAVDFTWEEWQF [L8N] here?
Answer: 4.42

Question: With MTKAQESWTLEDVAVDFTWEEWQF [L8W] as the variant, how does the protein stability index read?
Answer: 2.23

Question: For MTKAQESLTLEDWAVDFTWEEWQF [V13W], which protein stability index is on record?
Answer: 2.36

Question: Which protein stability index does the source give for MTDAQESLTLEDVAVDFTWEEWQF [K3D] here?
Answer: 3.63

Question: Which protein stability index does the source give for MTKAQESLTLEDVAVDFTYEEWQF [W19Y] here?
Answer: 3.61

Question: For MTKAQESLTLEDVAFDFTWEEWQF [V15F], which protein stability index is on record?
Answer: 2.48

Question: With MTKAQESLTLEDVAVDFTLEEWQF [W19L] as the variant, how does the protein stability index read?
Answer: 3

Question: For MTKAAESLTLEDVAVDFTWEEWQF [Q5A], which protein stability index is on record?
Answer: 3.02

Question: Which protein stability index does the source give for MTKAQESLTLEDVACDFTWEEWQF [V15C] here?
Answer: 3.71

Question: For MTKAQESLTKEDVAVDFTWEEWQF [L10K], which protein stability index is on record?
Answer: 4.34

Question: For MTMAQESLTLEDVAVDFTWEEWQF [K3M], which protein stability index is on record?
Answer: 2.64

Question: With MTKAQESLTLEDVAVDFTHEEWQF [W19H] as the variant, how does the protein stability index read?
Answer: 3.6

Question: For MTKAQESLTLEDQAVDFTWEEWQF [V13Q], which protein stability index is on record?
Answer: 4.18

Question: Which protein stability index does the source give for MTKAQESLQLEDVAVDFTWEEWQF [T9Q] here?
Answer: 3.58

Question: For MTKAQESLTLELVAVDFTWEEWQF [D12L], which protein stability index is on record?
Answer: 3.49

Question: Which protein stability index does the source give for MTKAQESLTLEDVAVDVTWEEWQF [F17V] here?
Answer: 4.05

Question: Which protein stability index does the source give for MTKAQESLTLEDVAVDFTTEEWQF [W19T] here?
Answer: 4.07

Question: Which protein stability index does the source give for MCKAQESLTLEDVAVDFTWEEWQF [T2C] here?
Answer: 2.57

Question: With MTKAQESLTLRDVAVDFTWEEWQF [E11R] as the variant, how does the protein stability index read?
Answer: 2.39

Question: For MTKAQESLTLMDVAVDFTWEEWQF [E11M], which protein stability index is on record?
Answer: 2.14

Question: Which protein stability index does the source give for MTQAQESLTLEDVAVDFTWEEWQF [K3Q] here?
Answer: 2.98

Question: Which protein stability index does the source give for MEKAQESLTLEDVAVDFTWEEWQF [T2E] here?
Answer: 3.94

Question: Which protein stability index does the source give for MAKAQESLTLEDVAVDFTWEEWQF [T2A] here?
Answer: 3.09

Question: With MTKAQESLDLEDVAVDFTWEEWQF [T9D] as the variant, how does the protein stability index read?
Answer: 3.71

Question: With MTKAQESLTLEDVAVDFMWEEWQF [T18M] as the variant, how does the protein stability index read?
Answer: 2.39

Question: Which protein stability index does the source give for MTKAQESLTLEDVAVDITWEEWQF [F17I] here?
Answer: 4.25

Question: With MTKAQESLTLEDVAVDKTWEEWQF [F17K] as the variant, how does the protein stability index read?
Answer: 4.72

Question: Which protein stability index does the source give for MTKAQESLILEDVAVDFTWEEWQF [T9I] here?
Answer: 2.71

Question: Which protein stability index does the source give for MTKAQESLTLEDVAVDFTFEEWQF [W19F] here?
Answer: 3.19

Question: With MTKAQESLTLEDVAVDFTWEEWQT [F24T] as the variant, how does the protein stability index read?
Answer: 3.94

Question: Which protein stability index does the source give for MTKAQESLTLLDVAVDFTWEEWQF [E11L] here?
Answer: 1.56

Question: For MTKAQESLTLEDVAVDFTWEVWQF [E21V], which protein stability index is on record?
Answer: 2.81

Question: Which protein stability index does the source give for MTKAQESLTLEDVAVGFTWEEWQF [D16G] here?
Answer: 3.13

Question: Which protein stability index does the source give for MTKAQESLTLEDVAVDFTWEYWQF [E21Y] here?
Answer: 1.95

Question: For MTKAMESLTLEDVAVDFTWEEWQF [Q5M], which protein stability index is on record?
Answer: 2.92

Question: For MTKAQEYLTLEDVAVDFTWEEWQF [S7Y], which protein stability index is on record?
Answer: 2.54

Question: For MTKAQESLTLEDVAVDFTWREWQF [E20R], which protein stability index is on record?
Answer: 2.06

Question: For MTKAQESLTLEDVAVDFTWEEEQF [W22E], which protein stability index is on record?
Answer: 4.52

Question: Which protein stability index does the source give for MTKAQESLTLEDVAVDFTWEENQF [W22N] here?
Answer: 4.27

Question: Which protein stability index does the source give for MTKAQESLPLEDVAVDFTWEEWQF [T9P] here?
Answer: 4.17

Question: Which protein stability index does the source give for MTKFQESLTLEDVAVDFTWEEWQF [A4F] here?
Answer: 2.51

Question: For MTKAQESLHLEDVAVDFTWEEWQF [T9H], which protein stability index is on record?
Answer: 3.81

Question: With MTKAQEILTLEDVAVDFTWEEWQF [S7I] as the variant, how does the protein stability index read?
Answer: 3.1

Question: Which protein stability index does the source give for MTKAQESLTLEDVAVDFTMEEWQF [W19M] here?
Answer: 3.77

Question: Which protein stability index does the source give for MTKAKESLTLEDVAVDFTWEEWQF [Q5K] here?
Answer: 2.83

Question: Which protein stability index does the source give for MTKAQESLTLEDVAVDFTWEEWSF [Q23S] here?
Answer: 3.06

Question: For MTKAQESLTLEDVAVRFTWEEWQF [D16R], which protein stability index is on record?
Answer: 2.22

Question: Which protein stability index does the source give for MTKAQESLTLEDVAVDFWWEEWQF [T18W] here?
Answer: 1.51

Question: Which protein stability index does the source give for MTKAQESPTLEDVAVDFTWEEWQF [L8P] here?
Answer: 3.58

Question: With MTKAQESLTLEDVAVDFTWEEWQR [F24R] as the variant, how does the protein stability index read?
Answer: 4.34

Question: For MTKAQESLTLEDVAVDQTWEEWQF [F17Q], which protein stability index is on record?
Answer: 4.51

Question: For MTKAQESLTLEDVAVQFTWEEWQF [D16Q], which protein stability index is on record?
Answer: 2.92

Question: Which protein stability index does the source give for MTKAQESLCLEDVAVDFTWEEWQF [T9C] here?
Answer: 3.52

Question: Which protein stability index does the source give for MTKAQESLTLEDVAVDFTWEEWVF [Q23V] here?
Answer: 2.08

Question: For MTKAQLSLTLEDVAVDFTWEEWQF [E6L], which protein stability index is on record?
Answer: 2.43

Question: With MTKAQESLTLEDVAVDFTWEEWQP [F24P] as the variant, how does the protein stability index read?
Answer: 3.9

Question: For MTKAQESLTLQDVAVDFTWEEWQF [E11Q], which protein stability index is on record?
Answer: 3.9

Question: For MTKAQESYTLEDVAVDFTWEEWQF [L8Y], which protein stability index is on record?
Answer: 2.7

Question: For MTKAQESLTLEDVAVDFTWEEWNF [Q23N], which protein stability index is on record?
Answer: 2.74

Question: With MTKAQESLTLEDVAVFFTWEEWQF [D16F] as the variant, how does the protein stability index read?
Answer: 2.94

Question: Which protein stability index does the source give for MTKAQESLTLEDVAVDFTWEEQQF [W22Q] here?
Answer: 4.16

Question: For MKKAQESLTLEDVAVDFTWEEWQF [T2K], which protein stability index is on record?
Answer: 3.77

Question: Which protein stability index does the source give for MTKAQESLTLEDVAVDFTWEETQF [W22T] here?
Answer: 4.28
